Data as given in PMC9638875 (EMBO Reports, 2022).

Target: the molecule itself
Assay: SEC

B1: His6-eVP40 (Ebola virus matrix protein VP40) (natural protein)
chain: MRRVILPTAPPEYMEAIYPVRSNSTIARGGNSNTGFLTPESVNGDTPSNPLRPIADDTIDHASHTPGSVSSAFILEAMVNVISGPKVLMKQIPIWLPLGVADQKTYSFDSTTAAIMLASYTITHFGKATNPLVRVNRLGPGIPDHPLRLLRIGNQAFLQEFVLPPVQLPQYFTFDLTALKLITQPLPAATWTDDTPTGSNGALRPGISFHPKLRPILLPNKSGKKGNSADLTSPEKIQAIMTSLQDFKIVPIDPTKNIMGIEVPETLVHKLTGKKVTSKNGQPIIPVLLPKYIGLDPVAPGDLTMVITQDCDTCHSPASLPAVIEK
stoichiometry N: 2
